Patent publication US6987089

Biological target: T1, His-CIA recombinant protein (His6-tagged mouse CIA)
T1 chain: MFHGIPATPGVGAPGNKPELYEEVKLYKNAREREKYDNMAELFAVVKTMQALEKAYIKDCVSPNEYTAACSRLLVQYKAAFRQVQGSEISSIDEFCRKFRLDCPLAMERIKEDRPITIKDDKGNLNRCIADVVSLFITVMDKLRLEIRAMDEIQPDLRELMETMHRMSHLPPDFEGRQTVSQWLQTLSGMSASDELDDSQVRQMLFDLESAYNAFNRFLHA

B1: ASK1-Flag (expressed from pcDNA3-ASK1-Flag in 293 cells, immunoprecipitated with anti-Flag) (protein)
chain: MSTEADEGITFSVPPFAPSGFCTIPEGGICRRGGAAAVGEGEEHQLPPPPPGSFWNVESAAAPGIGCPAATSSSSATRGRGSSVGGGSRRTTVAYVINEASQGQLVVAESEALQSLREACETVGATLETLHFGKLDFGETTVLDRFYNADIAVVEMSDAFRQPSLFYHLGVRESFSMANNIILYCDTNSDSLQSLKEIICQKNTMCTGNYTFVPYMITPHNKVYCCDSSFMKGLTELMQPNFELLLGPICLPLVDRFIQLLKVAQASSSQYFRESILNDIRKARNLYTGKELAAELARIRQRVDNIEVLTADIVINLLLSYRDIQDYDSIVKLVETLEKLPTFDLASHHHVKFHYAFALNRRNLPGDRAKALDIMIPMVQSEGQVASDMYCLVGRIYKDMFLDSNFTDTESRDHGASWFKKAFESEPTLQSGINYAVLLLAAGHQFESSFELRKVGVKLSSLLGKKGNLEKLQSYWEVGFFLGASVLANDHMRVIQASEKLFKLKTPAWYLKSIVETILIYKHFVKLTTEQPVAKQELVDFWMDFLVEATKTDVTVVRFPVLILEPTKIYQPSYLSINNEVEEKTISIWHVLPDDKKGIHEWNFSASSVRGVSISKFEERCCFLYVLHNSDDFQIYFCTELHCKKFFEMVNTITEEKGRSTEEGDCESDLLEYDYEYDENGDRVVLGKGTYGIVYAGRDLSNQVRIAIKEIPERDSRYSQPLHEEIALHKHLKHKNIVQYLGSFSENGFIKIFMEQVPGGSLSALLRSKWGPLKDNEQTIGFYTKQILEGLKYLHDNQIVHRDIKGDNVLINTYSGVLKISDFGTSKRLAGINPCTETFTGTLQYMAPEIIDKGPRGYGKAADIWSLGCTIIEMATGKPPFYELGEPQAAMFKVGMFKVHPEIPESMSAEAKAFILKCFEPDPDKRACANDLLVDEFLKVSSKKKKTQPKLSALSAGSNEYLRSISLPVPVLVEDTSSSSEYGSVSPDTELKVDPFSFKTRAKSCGERDVKGIRTLFLGIPDENFEDHSAPPSPEEKDSGFFMLRKDSERRATLHRILTEDQDKIVRNLMESLAQGAEEPKLKWEHITTLIASLREFVRSTDRKIIATTLSKLKLELDFDSHGISQVQVVLFGFQDAVNKVLRNHNIKPHWMFALDSIIRKAVQTAITILVPELRPHFSLASESDTADQEDLDVEDDHEEQPSNQTVRRPQAVIEDAVATSGVSTLSSTVSHDSQSAHRSLNVQLGRMKIETNRLLEELVRKEKELQALLHRAIEEKDQEIKHLKLKSQPIEIPELPVFHLNSSGTNTEDSELTDWLRVNGADEDTISRFLAEDYTLLDVLYYVTRDDLKCLRLRGGMLCTLWKAIIDFRNKQT
phosphorylation of GST-MKK6 (K82A) by immunoprecipitated ASK1 (immunocomplex kinase assay): The presence of the HIS-CIA recombinant protein, however, lowered the kinase activity of ASK1, which had been activated by the UV irradiation, resulting in a significant decrease in the phosphorylation of GST-MKK6
